± gives the standard deviation of the averaged measurements.
Assay: total protein half-life in vivo (active degradation + dilution); higher = more stable protein
[1] = E. coli NCM3722 delta-clpP delta-lon delta-hslV, growth: N-lim chemostat, doubling time 6 h
[2] = E. coli NCM3722 delta-clpP, growth: N-lim chemostat, doubling time 6 h
[3] = E. coli NCM3722 delta-hslV, growth: N-lim chemostat, doubling time 6 h
[4] = E. coli NCM3722 delta-lon, growth: N-lim chemostat, doubling time 6 h
[5] = E. coli NCM3722 delta-smpB, growth: N-lim chemostat, doubling time 6 h
[6] = wild type E. coli NCM3722, growth: C-lim chemostat, doubling time 6 h
[7] = wild type E. coli NCM3722, growth: C-lim chemostat, doubling time 12 h
[8] = wild type E. coli NCM3722, growth: N-lim chemostat, doubling time 6 h
[9] = wild type E. coli NCM3722, growth: N-lim chemostat, doubling time 12 h
[10] = wild type E. coli NCM3722, growth: P-lim chemostat, doubling time 6 h
[11] = wild type E. coli NCM3722, growth: P-lim chemostat, doubling time 12 h
[12] = wild type E. coli NCM3722, growth: C-lim chemostat, doubling time 3 h

Sequence | total protein half-life in vivo [1] [h] | total protein half-life in vivo [2] [h] | total protein half-life in vivo [3] [h] | total protein half-life in vivo [4] [h] | total protein half-life in vivo [5] [h] | total protein half-life in vivo [6] [h] | total protein half-life in vivo [7] [h] | total protein half-life in vivo [8] [h] | total protein half-life in vivo [9] [h] | total protein half-life in vivo [10] [h] | total protein half-life in vivo [11] [h] | total protein half-life in vivo [12] [h]
MQTKKNEIWVGIFLLAALLAALFVCLKAANVTSIRTEPTYTLYATFDNIGGLKARSPVSIGGVVVGRVADITLDPKTYLPRVTLEIEQRYNHIPDTSSLSIRTSGLLGEQYLALNVGFEDPELGTAILKDGDTIQDTKSAMVLEDLIGQFLYGSKGDDNKNSGDAPAAAPGNNETTEPVGTTK | 6.04 ± 0.2 | 6.2952 ± 0.0017 | 5.73 ± 1.1 | 6.27 ± 0.51 | 6.07 ± 0.14 | 5.612 ± 0.038 | 12.5 ± 1.4 | 6.08 ± 0.09 | 13.6 ± 1.8 | 5.72 ± 0.45 | 13.7 ± 0.79 | 
MNTLLLLAALSSQITFNTTQQGDVYTIIPEVTLTQSCLCRVQILSLREGSSGQSQTKQEKTLSLPANQPIALTKLSLNISPDDRVKIVVTVSDGQSLHLSQQWPPSSEKS | 4.26 ± 0.3 | 3.33 |  |  | 3.31 ± 0.35 |  | 5.97 ± 1.4 | 4.1 | 6.87 ± 0.16 | 4.19 | 7.71 ± 0.17 | 2.3
MNKKIHSLALLVNLGIYGVAQAQEPTDTPVSHDDTIVVTAAEQNLQAPGVSTITADEIRKNPVARDVSKIIRTMPGVNLTGNSTSGQRGNNRQIDIRGMGPENTLILIDGKPVSSRNSVRQGWRGERDTRGDTSWVPPEMIERIEVLRGPAAARYGNGAAGGVVNIITKKGSGEWHGSWDAYFNAPEHKEEGATKRTNFSLTGPLGDEFSFRLYGNLDKTQADAWDINQGHQSARAGTYATTLPAGREGVINKDINGVVRWDFAPLQSLELEAGYSRQGNLYAGDTQNTNSDSYTRSKYGDETNRLYRQNYALTWNGGWDNGVTTSNWVQYEHTRNSRIPEGLAGGTEGKFNEKATQDFVDIDLDDVMLHSEVNLPIDFLVNQTLTLGTEWNQQRMKDLSSNTQALTGTNTGGAIDGVSTTDRSPYSKAEIFSLFAENNMELTDSTIVTPGLRFDHHSIVGNNWSPALNISQGLGDDFTLKMGIARAYKAPSLYQTNPNYILYSKGQGCYASAGGCYLQGNDDLKAETSINKEIGLEFKRDGWLAGVTWFRNDYRNKIEAGYVAVGQNAVGTDLYQWDNVPKAVVEGLEGSLNVPVSETVMWTNNITYMLKSENKTTGDRLSIIPEYTLNSTLSWQAREDLSMQTTFTWYGKQQPKKYNYKGQPAVGPETKEISPYSIVGLSATWDVTKNVSLTGGVDNLFDKRLWRAGNAQTTGDLAGANYIAGAGAYTYNEPGRTWYMSVNTHF |  | 5.83 |  |  |  | 7.39 ± 0.36 | 14.5 ± 2.1 | 6.97 |  | 6.6 | 12.3 | 3.068 ± 0.0056
MAGHSKWANTRHRKAAQDAKRGKIFTKIIRELVTAAKLGGGDPDANPRLRAAVDKALSNNMTRDTLNRAIARGVGGDDDANMETIIYEGYGPGGTAIMIECLSDNRNRTVAEVRHAFSKCGGNLGTDGSVAYLFSKKGVISFEKGDEDTIMEAALEAGAEDVVTYDDGAIDVYTAWEEMGKVRDALEAAGLKADSAEVSMIPSTKADMDAETAPKLMRLIDMLEDCDDVQEVYHNGEISDEVAATL [P0A8A0] | 5.28 ± 0.71 | 4.61 ± 0.6 | 3.03 ± 0.19 | 3.29 ± 0.17 | 2.94 ± 0.12 | 4.01 ± 0.095 | 7.21 ± 0.53 | 3.15 ± 0.058 | 4.09 ± 0.034 | 3.69 ± 0.66 | 6.79 ± 0.84 | 2.524 ± 0.013
MALNTPQITPTKKITVRAIGEELPRGDYQRCPQCDMLFSLPEINSHQSAYCPRCQAKIRDGRDWSLTRLAAMAFTMLLLMPFAWGEPLLHIWLLGIRIDANVMQGIWQMTKQGDAITGSMVFFCVIGAPLILVTSIAYLWFGNRLGMNLRPVLLMLERLKEWVMLDIYLVGIGVASIKVQDYAHIQAGVGLFSFVALVILTTVTLSHLNVEELWERFYPQRPATRRDEKLRVCLGCHFTGYPDQRGRCPRCHIPLRLRRRHSLQKCWAALLASIVLLLPANLLPISIIYLNGGRQEDTILSGIMSLASSNIAVAGIVFIASILVPFTKVIVMFTLLLSIHFKCQQGLRTRILLLRMVTWIGRWSMLDLFVISLTMSLINRDQILAFTMGPAAFYFGAAVILTILAVEWLDSRLLWDAHESGNARFDD [P0AD03] |  | 3.28 |  | 4.34 | 4.47 |  |  | 4.43 |  | 3.99 | 6.67 ± 0.85 | 
MNMKTIEDVFIHLLSDTYSAEKQLTRALAKLARATSNEKLSQAFHAHLEETHGQIERIDQVVESESNLKIKRMKCVAMEGLIEEANEVIESTEKNEVRDAALIAAAQKVEHYEIASYGTLATLAEQLGYRKAAKLLKETLEEEKATDIKLTDLAINNVNKKAENKA | 5.25 ± 0.25 |  | 5.18 ± 0.69 | 6.51 ± 0.95 | 4.94 ± 0.081 | 5.04 ± 0.77 | 10.5 ± 1.4 | 4.881 ± 0.03 | 7.99 ± 0.53 | 5.294 ± 0.042 | 10.3 ± 0.62 | 3.02 ± 0.13
MKMIEVVAAIIERDGKILLAQRPAQSDQAGLWEFAGGKVEPDESQRQALVRELREELGIEATVGEYVASHQREVSGRIIHLHAWHVPDFHGTLQAHEHQALVWCSPEEALQYPLAPADIPLLEAFMALRAARPAD | 4.73 | 4.63 |  | 5.61 | 4.07 | 4.61 ± 0.59 | 8.63 | 3.82 | 6.31 ± 0.54 | 4.59 | 8.52 ± 0.99 | 3.25

Reference: the supplement of paper PMC11246515
